Results on 2 molecules are retold here after patent publication US20230331827A1, “POTASSIUM CHANNEL INHIBITORS” (priority 2017, published 2023).

In experiment [1] the test system is trypsin. The experiment in a line: Phage TRF binding assay on immobilised biotinylated trypsin (monoclonal phage ELISA). The note with it: for % reduction in binding signal: GlyAla mutant (Pro3, Arg4 of EETI-II substituted) versus the clone, monoclonal phage; for Tryspin binding signal (FU): monoclonal phage supernatant, biotinylated trypsin on neutravidin plates. The protocol: Phage display technology facilitates isolation of binders to any given target from large combinatorial repertoires based on proteins and peptides that can be presented on the surface of filamentous phage^105. In order to isolate functional knottin-antibody fusions from the KnotBody libraries multiple rounds of phage display selections on trypsin (cognate antigen for the EETI-II donor) were carried out. Phage particles were prepared by rescuing KnotBody libraries using trypsin cleavable helper phage ^102,106Two rounds of phage display selections were performed on 10 µg/ml biotinylated trypsin immobilised on Streptavidin (for Round-1) or Neutravidin (for round-2) coated Maxisorp™ immunotubes (Thermo Scientific, Cat No. 444202). In both rounds of selection, phage libraries were pre-incubated with streptavidin coated paramagnetic beads (Thermo Fisher Scientific, Cat. No. 11205D). These beads were removed prior to the addition the phage to the antigen tubes to limit the streptavidin binders entering the selection. Polyclonal phage preparations from round-2 selection outputs were analysed for trypsin binding using a time resolved fluorescence (TRF) binding assay. In this assay, polyclonal phage binding to biotinylated trypsin immobilised on neutravidin (Thermo Fisher Scientific, Cat. No 31000) coated Maxisorp™ plates (Thermo Scientific, Cat. No. 437111) was detected using a mouse anti-M13 antibody (GE Healthcare, Cat. No. 27-9420-01) followed by europium conjugated anti-mouse antibody (Perkin Elmer, Cat. No. AD0124).
In order to identify monoclonal KnotBodies with desired binding characteristics, 94 individual clones derived from 2 rounds of selection using EETI-II CDR1 or CDR2 libraries were picked into 96 well culture plates and phage were prepared from each clone. Methods for screening by monoclonal phage ELISA are known in the art^107. […] Clones with >3x binding signal above background were picked as positive clones and sequenced to identify unique clones. 14 and 42 unique binders were identified from EETI-II CDR1 and EETI-II CDR2 libraries respectively (Table 1). 18 binders from the EETI-II CDR2 library and 3 binders from the EETI-II-CDR1 library were chosen for further characterisation based on their VL and linker sequence diversity. These binders were assigned new clone identification numbers (Table 2).
The trypsin binding capability of EETI-II is attributed to proline (Pro3) and arginine (Arg4) residues present in its loop1 (GCPRILMRC; SEQ ID NO: 68). […] Monoclonal phage was prepared from the 21 selected clones and their mutant equivalents. […] Replacement of the trypsin-binding residues of EETI-II abolished the ability of all KnotBody clones to bind to trypsin (Table 3). In order to confirm that the loss of trypsin binding was not due to reduced expression or display of pIII fusion phage was prepared from 11 (randomly chosen) KnotBodies and their GlyAla variants were analysed on a western blot using an antibody which recognises the product of gene 3 (pIII) using an anti-pIII antibody (MoBiTec GmbH) (FIG. 6).
Bovine antibodies have been described with natural ultra-long VH CDR3s containing a solvent exposed double stranded antiparallel sheet approximately 20 A° in length (referred to as the stalk) presenting a folded domain stabilised by 3 disulfide bonds (referred to as the Knob)^10. Zhang and colleagues have shown that the Knob domains of these cow ultra-long VH CDR3 antibodies (ULVC-Ab) can be replaced with other folded proteins such as erythropoietin^13. In this example, we assess the ability of a cow ULVC-Ab to present functional knottin fusions on phage in comparison with a KnotBody. In order to create a Knottin-cow UCLA fusion, the sequence between the first and the last cysteines of the knob region of the Cow ULVC-Ab BLV1H12 was replaced with the sequence of the trypsin binding knottin; EETI-II (EETI-II cow ULVC-Ab). A gene fragment encoding this construct was synthesised (Integrated DNA technologies, Table 21). […]
On the technique in general: ELISA stands for enzyme-linked immunosorbent assay.

The test system of experiment [2] is trypsin. Nature of the experiment: KnotBody Fab TRF binding assay on biotinylated trypsin. Particulars: for TRF signal for 0.6 ug/mL Fab: Fab 0.6 ug/mL; for TRF signal for 2.4 ug/mL Fab: Fab 2.4 ug/mL; for TRF signal for 10 ug/mL Fab: Fab 10 ug/mL. The protocol: In order to confirm the trypsin binding ability of KnotBodies in Fab format, purified proteins were tested for binding to trypsin using a TRF binding assay. In this assay binding of KnotBody Fabs ([…]) to biotinylated trypsin (immobilised on streptavidin coated Maxisorp™ plates) was detected using a mouse anti-CH1 antibody followed by a europium conjugated anti-mouse antibody (Table 4). 7 KnotBodies (KB_A04, KB_A01, KB_A05, KB_A07, KB_A08, KB_A10, KB_A12) were chosen for crystallisation. DNA prepared for these clones were transfected into 500 ml HEK-293F cells as described before. Expressed proteins were purified using CaptureSelect IgG-CH1 affinity matrix. Purified proteins were initially subjected to crystallisation trials using commercially available crystallisation screens (Supplier). Well-defined crystals were readily obtained for KB_A12 and KB_A05. Crystallisation conditions for these two clones were further optimised and the following condition was used to generate diffraction quality crystals: 0.1 M MES pH=6.5, 25 %w/v PEG MME 2000 and 0.1 M Tris.Cl, 50% PEG MME, 10 mM NiCl2. Complete diffraction data was collected on these crystals at 100 K under liquid nitrogen stream. Collected data was processed using PROTEUM2 software (Bruker). The crystal structure of the knottin-fused Fab antibodies was resolved using molecular replacement technique^109 using Phenix software v 1.8.1-1168^110. Resulting structure was further refined using Phenix.Refine^111. The templates for molecular replacement were downloaded from PDB website (www.rcsb.org/pdb, PDB codes: 3G04 for light chain and 3QOS for heavy chain). KnotBody KB_A12 and KB_A05 sequences are given below. An additional AlaSer sequence is introduced at the N terminus of the light chain from the Nhe1 site used in cloning.
In order to compare the performance of the KnotBodies with short and long linkers, purified Fabs were tested for binding to trypsin by ELISA. In this assay binding of KnotBody Fabs (at 0.5 µg/ml) to biotinylated trypsin (5 µg/ml immobilised on streptavidin coated Maxisorp™ plates) was detected using a mouse anti-CH1 antibody (Hybridoma Reagent Laboratories) followed by a europium conjugated anti-mouse antibody (Perkin Elmer, Cat. No. AD0124). The trypsin binding capability of KB_A07 and KB_A12 KnotBodies were greatly diminished when the short selected linkers were replaced with long and flexible linkers (FIG. 22).

B1: KB_A07: EETI-II knottin fused into VL CDR2, D1A12 VH; parental KnotBody, isotype control (antibody, V domains shown)
VH: EVQLVESGGGLVRPGGSLRLSCAASGFTFSSYAMSWVRQAPGKGLEWVSAISGSGGSTYYADSVKGRFTISRDNTKNSLYLQMTSLRADDTAFYYCVKDFGPGYGTGWFDYWGPGTLVTVSS
VL: DIQMTQSPSSLSASVGDRVTITCRASQSISSYLNWYQQKPGKAPKLLIYAAGVCPRILMRCKQDSDCLAGCVCGPNGFCGSRSGVPSRFSGSGSGTDFTLTISSLQPEDFATYYCQQGASPPYTFGQGTKVEIKRT
On to B1, for which, in the experiment on trypsin [1], the “% reduction in binding signal” value is given as 98% and the “Tryspin binding signal (FU)” value stood at 21448 FU. Besides, in the experiment with trypsin [2], the “TRF signal for 0.6 ug/mL Fab” value came out at 107814, the “TRF signal for 2.4 ug/mL Fab” value turned out to be 201003 and the “TRF signal for 10 ug/mL Fab” value is given as 226082.

B2: KB_A12: EETI-II knottin fused into VL CDR2, D1A12 VH; parental KnotBody, isotype control (antibody, V domains shown)
VH: EVQLVESGGGLVRPGGSLRLSCAASGFTFSSYAMSWVRQAPGKGLEWVSAISGSGGSTYYADSVKGRFTISRDNTKNSLYLQMTSLRADDTAFYYCVKDFGPGYGTGWFDYWGPGTLVTVSS
VL: QSVLTQPPSVSEAPRQRVTITCSGSSSNIGNNAVNWYQQLPGKAPKLLIYAAGRCPRILMRCKQDSDCLAGCVCGPNGFCGANSGVSDRFSAAKSGTSASLAINGLRSEDEADYYCAAWDDSLNGYVFGTGTKLTVLGQP
Regarding B2, in the experiment with trypsin [1], the “% reduction in binding signal” value came out at 99% and the “Tryspin binding signal (FU)” value amounted to 69349 FU. The “phage binding to trypsin” value in the experiment with trypsin [1] (PEG precipitated phage, compared to EETI-II cow ULVC-Ab, FIG. 25) is “superior binding to trypsin”. In the experiment on trypsin [2], the “TRF signal for 0.6 ug/mL Fab” value amounted to 102132, the “TRF signal for 2.4 ug/mL Fab” value came out at 221989 and the “TRF signal for 10 ug/mL Fab” value came to 252832.
